Results reported in PMC9063426, “MAP kinases differentially bind and phosphorylate NOS3 via two unique NOS3 sites” (FEBS Open Bio, 2022).

Assays:
[1] = molecular target: AI peptide (NOS3 autoinhibitory loop site) (human); experiment: BLI; N-terminally biotinylated NOS3 peptides on streptavidin sensors, inactive MAP kinases as analytes at 31-1000 nM; 25 °C; PBS with 10% glycerol, 0.005% tween, 1 mM DTT; global one-state association-then-dissociation fit
[2] = molecular target: NtMAP peptide (NOS3 N-terminal MAP kinase site) (human); experiment: as above
[3] = molecular target: NOS3 NtMAP peptide (N-terminal MAP kinase site), biotinylated (human); experiment: BLI; N-terminally biotinylated NOS3 peptides on streptavidin sensors, inactive MAP kinases as analytes (31 to 1000 nM); 25 °C; PBS with 10% glycerol, 0.005% tween, 1 mM DTT; global one-state association-then-dissociation fit
[4] = molecular target: NOS3 AI peptide (autoinhibitory loop site), biotinylated (human); experiment: as above
ERK2 = ERK2 (UniProt P63086); experiment: BLI, biotinylated peptide on streptavidin sensor

Kd [1] [µM] | koff [1] [s⁻¹] | kon [1] [M⁻¹ s⁻¹] | Kd [2] [µM] | koff [2] [s⁻¹] | kon [2] [M⁻¹ s⁻¹] | koff [3] [s⁻¹] | kon [3] [M⁻¹ s⁻¹] | koff [4] [s⁻¹] | kon [4] [M⁻¹ s⁻¹] | KD (ERK2; reference: unphosphorylated NtMAP peptide, sites S114) | KD (ERK2; reference: unphosphorylated AI peptide, sites S633) | Substance
0.17 | 0.002 | 12000 | 0.94 | 0.062 | 6600 | 0.00623 | 6600 | 0.00207 | 12100 |  |  | ERK2, inactive (unphosphorylated), His-purified (from UniProt P63086 1-358) (enzyme)
0.003 |  | 84000 | 0.038 | 0.00054 | 14000 | 0.000543 | 14100 | 0.00025 | 84600 |  |  | GST-JNK1α1, inactive (unphosphorylated), made in house (from UniProt P45983-2 1-384) (enzyme)
 |  |  |  |  |  |  |  |  |  | lost; reference 940 |  | NOS3 (eNOS) NtMAP site (from UniProt P29474) NtMAP pS114 peptide
 |  |  |  |  |  |  |  |  |  |  | lost; reference 170 | NOS3 (eNOS) autoinhibitory (AI) loop site (from UniProt P29474) AI pS633 peptide
